This note sets out measurements from paper PMC4028238.

The first series concerns Influenza A virus hemagglutinin (whole virus as assayed) (Influenza A virus H3N2 A/Texas/1977 (A/Texas/1/77)). Put plainly: competition ELISA. As to conditions: 5' PEG200, PBS, room temperature, […] (0.5-500 nM) […] (5 nM). (ELISA stands for enzyme-linked immunosorbent assay.)
Turning to “ATTAACCCTCACTAAAGGGCTGAGTCTCAAAACCGCAATACACTGGTTGTATGGTCGAATAAGTTAA [BV32]”, the relative binding affinity (IC50 ratio vs BV02) (IC50(BV02)/IC50) stood at 1.33.

The series is the same for the next values; noted with them: * marks (phosphorothioate) after nt 1,2,3, 3' inverted dT, PBS, room temperature, […] (0.5-500 nM) […] (5 nM).
With “ATTAACCCTCACTAAAGGGCTGAGTCTCAAAACCGCAATACACTGGTTGTATGGTCGAATAAGTTAA [BV29]”, the relative binding affinity (IC50 ratio vs BV02) (IC50(BV02)/IC50) was 6.7.

Still in this series, the particulars now being: * marks (phosphorothioate) after nt 1,2,3 and the last 3 linkages, PBS, room temperature, […] (0.5-500 nM) […] (5 nM).
Regarding “ATTAACCCTCACTAAAGGGCTGAGTCTCAAAACCGCAATACACTGGTTGTATGGTCGAATAAGTTAA [BV28]”, the relative binding affinity (IC50 ratio vs BV02) (IC50(BV02)/IC50) amounted to 1.36.

Staying with this series, now noted: * marks (phosphorothioate): A*T*T*AACC*CTCACTAAAGGG*CTGAGTC*TCAAAACCG*CAATACACTG*GTTGTATG*GTCGAATAAGT*T*A*A, PBS, room temperature, […] (0.5-500 nM) […] (5 nM).
For “ATTAACCCTCACTAAAGGGCTGAGTCTCAAAACCGCAATACACTGGTTGTATGGTCGAATAAGTTAA [BV31]”, the relative binding affinity (IC50 ratio vs BV02) (IC50(BV02)/IC50) was determined as 7.51.

Staying with this series, now noted: PBS, room temperature, […] (0.5-500 nM) […] (5 nM).
For “AAATAAGCCTGACTTAACGGGTGACTCTCAAAACCGCAATACACTCAGCCCTTTAGTGAGGGTTAATT [BV19k]”, the relative binding affinity (IC50 ratio vs BV02) (IC50(BV02)/IC50) is 0.932. On the same count and under the same terms, as for “AACCCTCACTCCGACTCACTCAAAACCGCAATACACTCAGCCAGTGAGGGTT [BV19f]”, the figure is 0.131; as for “AACCCTCACTCTCAAAACCGCAATACAGTGAGGGTT [BV19h]”, 0.016; as for “AACGCTCACTAAACCCCCCCCCACCCCCCCCCACCCCCCCCCAAAAGTGAGCGTT [BV45a]”, 12.6. In the case of “AACGCTCACTAACCCCCCCCCCACCCCCCCCCCACCCCCCCCCCAAGTGAGCGTT [BV45]”, the relative binding affinity (IC50 ratio vs BV02) (IC50(BV02)/IC50) is 14.2. For the sequence “AACGCTCACTACCCCCCCCCCAACCCCCCCCCCAACCCCCCCCCCAGTGAGCGTT [BV45b]”, the relative binding affinity (IC50 ratio vs BV02) (IC50(BV02)/IC50) stood at 15.1. “AACGCTCACTCCCAAGAAGAAGAACCCCCCCCCCCCCCCCAGTGAGCGTT [BV43b]”: the relative binding affinity (IC50 ratio vs BV02) (IC50(BV02)/IC50) is 8.01. For the sequence “AACGCTCACTCCCCCAAGAACCCCCCCCCCATGCACCCCCCCCCCAGTGAGCGTT [BV45e]”, the relative binding affinity (IC50 ratio vs BV02) (IC50(BV02)/IC50) is 11.4. With “AACGCTCACTCCCCCAAGAACCCCCCCCCCCCTCCCCCCCCCCCCAGTGAGCGTT [BV45c]”, the relative binding affinity (IC50 ratio vs BV02) (IC50(BV02)/IC50) amounted to 11.7. “AACGCTCACTCCCCCAAGAACCCCCCCCCCCTGACCCCCCCCCCCAGTGAGCGTT [BV45d]”: the relative binding affinity (IC50 ratio vs BV02) (IC50(BV02)/IC50) came to 10.7. As for “AACGCTCACTCCCCCACCCCCCCACCCCCCCACCCCCCCACCCCCAGTGAGCGTT [BV35m]”, the relative binding affinity (IC50 ratio vs BV02) (IC50(BV02)/IC50) was found to be 6.54. As to “AACGCTCACTCCCCCCCCACCCCCCCCACCCCCCCCACCCCCCCCAGTGAGCGTT [BV35n]”, the relative binding affinity (IC50 ratio vs BV02) (IC50(BV02)/IC50) was 7.23. As to “AACGCTCACTCCCCCCCCCCCACCCCCCCCCCCACCCCCCCCCCCAGTGAGCGTT [BV35o]”, the relative binding affinity (IC50 ratio vs BV02) (IC50(BV02)/IC50) amounted to 9.92. As to “AACGCTCACTCCCCCCCCCCCCCCAAGAAGAACCCCCCCCCCCCCAGTGAGCGTT [BV42b]”, the relative binding affinity (IC50 ratio vs BV02) (IC50(BV02)/IC50) turned out to be 14.9. Turning to “AACGCTCACTCCCCCCCCCCCCCCCAAGAACCCCCCCCCCCCCCCAGTGAGCGTT [BV35s]”, the relative binding affinity (IC50 ratio vs BV02) (IC50(BV02)/IC50) is 7.45. Consider “AACGCTCACTCCCCCCCCCCCCCCCCCACCCCCCCCCCCCCCCCCAGTGAGCGTT [BV35p]”, for which the relative binding affinity (IC50 ratio vs BV02) (IC50(BV02)/IC50) is 9.88. For “AACGCTCACTCCCCCCCCCCCCCCCCCCCAGTGAGCGTT [BV35g]”, the relative binding affinity (IC50 ratio vs BV02) (IC50(BV02)/IC50) amounted to 0.639.

Take “AATTAACCCTCACTAAAGCCGACTCACTCAAAACCGCAATACACTCAGCCCTTTAGTGAGGGTTAATT [BV19b]”: the relative binding affinity (IC50 ratio vs BV02) (IC50(BV02)/IC50) amounted to 1.26. Turning to “AATTAACCCTCACTAAAGGGCTCTCACTCAAAACCGCAATACACTCAGCCCTTTAGTGAGGGTTAATT [BV19a]”, the relative binding affinity (IC50 ratio vs BV02) (IC50(BV02)/IC50) is 0.574. In the case of “AATTAACCCTCACTAAAGGGCTGAGTCTCAAAACCGCAATACACTCAGCCCTTTAGTGAGGGTTAATT [BV19]”, the relative binding affinity (IC50 ratio vs BV02) (IC50(BV02)/IC50) was 1.34. Consider “AATTAACCCTCACTAAAGGGCTGAGTCTCAAAACCGCAATACACTGGTTGTACAACCAGTGTATTGCG [BV14]”, for which the relative binding affinity (IC50 ratio vs BV02) (IC50(BV02)/IC50) was determined as 1.33.

Regarding “AATTAACCCTCACTAAAGGGCTGAGTCTCAAAACCGCAATACACTGGTTGTATGGTCGAATAAGTTAA [BV02]”, the IC50 stood at 0.055 µM and the relative binding affinity (IC50 ratio vs BV02) (IC50(BV02)/IC50) was 1.

As for “AATTAACCCTCACTAAAGGGCTGAGTCTCAAAACCGCAATACACTGGTTGTATGTTAATTGGGAGTGA [BV18]”, the relative binding affinity (IC50 ratio vs BV02) (IC50(BV02)/IC50) turned out to be 7.26. Regarding “AATTAACCCTCACTAAAGGGCTGAGTCTCAAAACGTTTTGAGACTCAGCCCTTTAGTGAGGGTTAATT [BV11]”, the relative binding affinity (IC50 ratio vs BV02) (IC50(BV02)/IC50) amounted to 0.124. For the sequence “AATTAACCCTCACTAAAGGGCTGATGCGGAATAAGTTAAAACCGCAGGTATACACTGGTTGTATCGAA [BV02a]”, the relative binding affinity (IC50 ratio vs BV02) (IC50(BV02)/IC50) was found to be 0.946.

Take “AATTAACCCTCCTAAAGGGTCTGAGTCTCAAAACCGCAATACACTCAGCCCTTTAGTGAGGGTTAATT [BV19l]”: the relative binding affinity (IC50 ratio vs BV02) (IC50(BV02)/IC50) stood at 0.004. For “AATTAACCCTGACTAAAGGGGTGAGTCTCAAAACCGCAATACACTCAGCCCTTTAGTGAGGGTTAATT [BV19i]”, the relative binding affinity (IC50 ratio vs BV02) (IC50(BV02)/IC50) stood at 0.071. Consider “AATTAACGCTCACTAAAGCCCCACCCACCCACCCACCCACCCACCCACCCCTTTAGTGAGCGTTAATT [BV36b]”, for which the relative binding affinity (IC50 ratio vs BV02) (IC50(BV02)/IC50) stood at 0.611. Regarding “AATTAAGCCTGACTTAAGGGGTGAGTCTCAAAACCGCAATACACTCAGCCCTTTAGTGAGGGTTAATT [BV19j]”, the relative binding affinity (IC50 ratio vs BV02) (IC50(BV02)/IC50) stood at 0.071. “AGATAAATGTCCGGGTTCGCTTCACTGATCAAACATAGACAGGTATAATTACTGCCTGAAGAAAATCC [S2]”: the relative binding affinity (IC50 ratio vs BV02) (IC50(BV02)/IC50) is 1. Same read-out and setting: with CACCACCACCACCACCACCACCACCACCAC [BV24b] the figure was 0.05. For “CCCCCCCCCCCCCCCCCGCGCTGAGTCCCCCCCCCCCCCCCCCCCACTCAGCGCG [BV35c]”, the relative binding affinity (IC50 ratio vs BV02) (IC50(BV02)/IC50) was determined as 1.16. On the same count and under the same terms, with “CCCCCCCCCGCGCTGAGTCCCCCCCCCCCCCCCCCCCACTCAGCGCGCCCCCCCC [BV35b]” the figure was 0.938; with “CTCACTAAAGCGCTGAGTCCCCCCCCCCCCCCCCCCCACTCAGCGCTTTAGTGAG [BV35]”, 1.01; with “CTCACTAAAGGGCTGAGTCAAACCGCAATACACTGGTTGTATGGTCGAATAAGTT [BV27]”, 0.116. The same measure, in the same setting: as for “CTCACTAAAGGGCTGAGTCAAACCGCAATACACTGGTTGTATGGTCGGTTAAGTT [BV27c]”, the figure is 0.771; as for “CTCACTAAAGGGCTGAGTCTCAAAACCGCAATACACTCAGCCCTTTAGTGAG [BV19g]”, 0.132. For the sequence CTCCTCCTCCTCCTCCTCCTCCTCCTCCTC [BV24a], the relative binding affinity (IC50 ratio vs BV02) (IC50(BV02)/IC50) turned out to be 0.08. On the same count and under the same terms, with “GAAATAACCTCTGATAAAAAATTTCTCCATAGCGAAGTAAGTCCATAAGGAATGCCGATTCGGCTTGC [S1]” the figure was 1.1; with GCTGAGTCTCAAAACCGCAATACACTGGTT [BV26], 0.792. “GGCTCACTAAAGGGCTGAGTCTCAAAACCGCAATACACTCAGCCCTTTAGTGAGGGTTAATTTTAAAGG [BV19c]”: the relative binding affinity (IC50 ratio vs BV02) (IC50(BV02)/IC50) came out at 0.086. As to “GGCTGAGTCAAACCGCCTAACACTGGTACAATGGCGGTTAAGTT [BV27m]”, the relative binding affinity (IC50 ratio vs BV02) (IC50(BV02)/IC50) stood at 0.012. Still for that read-out and setting: with “GGTAGTTATAGTATATGGAAGGGGCCCCCCCCCCCCCCCCGTGTCGTATGG [C7C]” the figure was 15.5; with “GGTAGTTATAGTATATGGAAGGGGGTGTCGTATGG [C7-35M]”, 0.549; with “GTAAATACCTCTGAAATAATATCTCCATGACAGAGTAAGTCCATGAGAACTGACGATGCAAGTCTGTC [S3]”, 0.7.

For the sequence “GTCACTAAAGGGCTGAGTCAAACCGCAATACACTGGTTGTATGGTCGGTTAAGTT [BV27f]”, the relative binding affinity (IC50 ratio vs BV02) (IC50(BV02)/IC50) was found to be 0.75.

Turning to “GTCACTAAAGGGCTGAGTCAAACCGCCATACACTGGTTGTATGGCGGTTAAGTT [BV27j]”, the relative binding affinity (IC50 ratio vs BV02) (IC50(BV02)/IC50) is 0.089. As for “GTTTTGAGACTCAGCCCGGGCTGAGTCTCAAAACCGCAATACACTGGTTGTACAACCAGTGTATTGCG [BV13]”, the relative binding affinity (IC50 ratio vs BV02) (IC50(BV02)/IC50) came out at 0.084.

Turning to “TCATTCTCAGTAAAGGGCTGAGAATTCAAACCGCAATACACTGGTAAAAAGTGCGGTTAAG [BV27p]”, the relative binding affinity (IC50 ratio vs BV02) (IC50(BV02)/IC50) came out at 0.133. Still for that read-out and setting: with “TCATTCTCAGTAAAGGGCTGAGTCAAACCGCAATACACTGGTAAAAAGTGCGGTTAGCGAG [BV27o]” the figure was 0.116; with “TCCTCAGCAAAATAGCGGGGCTGAGTCAAACCGCAATACACTGGTAAAAAGTGCGGTTAAG [BV37b]”, 1. With “TCCTCAGCAAAATAGCGGGGCTGAGTCTCAAACCGCAATACACTGGTAAAAAGTGCGGTTA [BV37c]”, the relative binding affinity (IC50 ratio vs BV02) (IC50(BV02)/IC50) worked out at 7.56. Consider “TCCTCAGTAAAATAGCGGGGCTGAGTCAAACCGCAATACACTGGTAAAAAGTGCGGTTAAG [BV27n]”, for which the relative binding affinity (IC50 ratio vs BV02) (IC50(BV02)/IC50) is 0.151. On the same count and under the same terms, as for “TCCTCAGTAAAGGGCTGAGAAACCGCAATACACTGGTAAAAAGTGCGGTTAAGTT [BV27g]”, the figure is 0.093; as for “TCCTCAGTAAAGGGCTGAGTCAAAACCGCAATACACTGGTAAAAAGTGCGGTTAG [BV27i]”, 0.065. “TCCTCAGTAAAGGGCTGAGTCAAACCGCAATACACTGGTAAAAAGTGCGGTTAAG [BV27h]”: the relative binding affinity (IC50 ratio vs BV02) (IC50(BV02)/IC50) was found to be 0.092.

For orientation: IC50 means the concentration that inhibits the measured activity by half.
